The numbers were not newly measured in article PMC6651453, which cites them from elsewhere.

In general, Kd refers to a measure of binding affinity in units of concentration.

The target in data set [1] is TPP1 TBM1 (Homo sapiens) (UniProt Q96AP0). In words: fluorescence polarization.
Data set [2] has the same target. Put plainly: fluorescence polarization. This is another data set of the same source. (Polarisation of emitted light reports the rotation of a fluorescent probe.)
The target in data set [3] is TPP1 89-544 (Homo sapiens) (UniProt Q96AP0). Put plainly: fluorescence anisotropy and thermophoresis.
In data set [4] the target is POT1 330-634 (Homo sapiens) (UniProt Q9NUX5). Put plainly: isothermal titration calorimetry. (Isothermal titration calorimetry measures the heat released or taken up as one component is titrated into another.)
Data set [5] concerns the target TIN2 (Homo sapiens) (UniProt Q9BSI4). Put plainly: thermophoresis.
Data set [6] deals with TIN2 2-202 (Homo sapiens) (UniProt Q9BSI4). In words: fluorescence polarization.
For data set [7] the target is unchanged. In words: fluorescence polarization. This is another data set of the same source.

Like-named read-outs stand apart in the source and are kept apart here.

Sequence of UniProt Q9NUX5 (Q9NUX5 330-634): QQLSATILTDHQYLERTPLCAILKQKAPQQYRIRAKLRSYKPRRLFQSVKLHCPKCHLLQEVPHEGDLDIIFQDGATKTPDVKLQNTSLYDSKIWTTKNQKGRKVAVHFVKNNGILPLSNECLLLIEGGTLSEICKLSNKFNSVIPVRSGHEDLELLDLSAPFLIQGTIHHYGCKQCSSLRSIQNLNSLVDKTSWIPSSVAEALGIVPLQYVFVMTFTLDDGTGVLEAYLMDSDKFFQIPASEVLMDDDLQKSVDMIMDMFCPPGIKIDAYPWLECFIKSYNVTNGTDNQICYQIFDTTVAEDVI

As for TIN2 2-202 (from UniProt Q9BSI4), the Kd was 140 nM in data set [1] and 520 nM in data set [2].

TIN2 (from UniProt Q9BSI4): the Kd in data set [3] was 2800 nM.

On to TPP1 255-337 (from UniProt Q96AP0), for which, in data set [4], the Kd is 120 nM.

TRF1 (from UniProt P54274): in data set [5], the Kd is 240 nM.

In the case of TRF2 (from UniProt Q15554), in data set [5], the Kd is 360 nM.

Regarding TRF2 TBM2 (from UniProt Q15554), the Kd is 1100 nM in data set [6] and 2700 nM in data set [7].
